According to PMC1762332, “Catalases Are NAD(P)H-Dependent Tellurite Reductases” (PLoS ONE, 2006):

Legend:
[1] = target: the molecule itself; assay: native gel or EMSA; purified bovine liver catalase on native 12% polyacrylamide gel, 40 mM Tris-glycine pH 8.3, 4°C; band compared with a 244 kDa standard; dismutase and tellurite reductase activities stained in situ
[2] = target: the molecule itself; assay: native gel or EMSA; crude extracts of E. coli Top10 (pCAT) on native 12% polyacrylamide gel, 40 mM Tris-glycine pH 8.3, 4°C; catalase found by H2O2 dismutase and tellurite reductase activity staining in situ

Row | Protein | stoichiometry N [1] | stoichiometry N [2]
1 | bovine liver catalase (enzyme, UniProt P00432 1-527, looked up, catalase (EC 1.11.1.6) from bovine liver, commercial purified enzyme; the legend calls it a tetramer of 255 kDa; also called bovine catalase; catalase (C-9322); source: bought: Sigma (C-9322), purified) MADNRDPASDQMKHWKEQRAAQKPDVLTTGGGNPVGDKLNSLTVGPRGPLLVQDVVFTDEMAHFDRERIPERVVHAKGAGAFGYFEVTHDITRYSKAKVFEHIGKRTPIAVRFSTVAGESGSADTVRDPRGFAVKFYTEDGNWDLVGNNTPIFFIRDALLFPSFIHSQKRNPQTHLKDPDMVWDFWSLRPESLHQVSFLFSDRGIPDGHRHMNGYGSHTFKLVNANGEAVYCKFHYKTDQGIKNLSVEDAARLAHEDPDYGLRDLFNAIATGNYPSWTLYIQVMTFSEAEIFPFNPFDLTKVWPHGDYPLIPVGKLVLNRNPVNYFAEVEQLAFDPSNMPPGIEPSPDKMLQGRLFAYPDTHRHRLGPNYLQIPVNCPYRARVANYQRDGPMCMMDNQGGAPNYYPNSFSAPEHQPSALEHRTHFSGDVQRFNSANDDNVTQVRTFYLKVLNEEQRKRLCENIAGHLKDAQLFIQKKAVKNFSDVHPEYGSRIQALLDKYNEEKPKNAVHTYVQHGSHLSAREKANL | 4 | 
2 | S. epidermidis CH catalase (product of the katA gene) expressed from plasmid pCAT (enzyme, Staphylococcus epidermidis CH, UniProt Q2PUJ9 1-504, looked up, catalase KatA of Staphylococcus epidermidis strain CH; The coding region was amplified with primers from the ATG to the stop codon; The 1,515 bp gene is deposited as GenBank DQ301862 and differs by 15 bp from its homolog SE1016 in strain ATCC12228; Cloned with the pBAD TOPO TA Expression Kit; also called S. epidermidis catalase; 60 kDa protein; source: E. coli Top10 carrying pCAT (pBAD vector), …) MSKQDGKLTGLFGAPVSDRENSMTAGRRGPLLMQDVYYLEQISHFDREVIPERRMHAKGSGAFGTFTVTNDITQYTNAKIFSEVGKQTEMFARFSTVSGERGAADLERDIRGFALKFYTEDGNWDLVGNNTPVFFFRDPKLFISLNRAVKRDPRTNMRSAQNNWDFWTGLPEALHQVTILMSDRGMPKGFRNMHGFGSHTYSMYNDKGERVWVKYHFRTQQGIENYTDEEAAKIVGMDRDSSQRDLYNAIENGDYPKWKMYIQVMTEEQAKNHPDNPFDLTKVWYKKDYPLIEVGEFELNRNPENYFLDVEQAAFAPTNIVPGLDYSPDKMLQGRLFSYGDAQRYRLGVNHWQIPVNQPKGVGVENLCPFSRDGQMRFLDNNQGGGPHYYPNNQGIYESQPEHKKPPFPTDGDGYEYNYRQDDDNYFEQPGKLFRLQSEDAKERIFTNTANAMDGVSKDVKVRHIRHCYKADPEYGKGVAKALDIDINQIDLETNQDETYENFK |  | 4
